Data on 1 molecule can be found in publication PMC12429063, “The BUB1 and BUBR1 paralogs scaffold the kinetochore fibrous corona” (Science Advances, 2025).

Assay [1] concerns the target T1, mCherry-tagged ROD-Zwilch-ZW10 (RZZ) complex, wild type (UniProt P50748 1-2209; Q9H900 1-591; O43264 1-779).
T1 construct: ROD, subunit of the RZZ complex; Zwilch, subunit of the RZZ complex; ZW10, subunit of the RZZ complex; also called mCherry-RZZ; mCherry-RZZ^WT; source: expressed and purified using the biGBac system, as previously described; copies: 2 + 2 + 2
As to the kind of experiment: pull-down; GST-BUB1 baits on GSH beads, no phosphorylation step; 50 mM Hepes pH 8.0, 100 mM NaCl, 1 mM TCEP; beads 2 hours at 4°C; SDS-PAGE, Coomassie or in-gel fluorescence. Particulars: both partners purified.

For assay [2], the target named is T2, RZZS rings: mCherry-RZZ polymerized with farnesylated GFP-Spindly in the presence of MPS1 kinase domain (UniProt P50748 1-2209; Q9H900 1-591; O43264 1-779; Q96EA4 1-605, incubated with MPS1 kinase domain and ATP (the paper names T13 and S15 of ROD as the MPS1 sites) | farnesylated).
T2 construct: ROD, subunit of the RZZ complex; Zwilch, subunit of the RZZ complex; ZW10, subunit of the RZZ complex; Spindly, dynein-dynactin adaptor; A polymer; also called polymerized RZZS; RZZS filaments; copies: + + +
T2 sequence (P50748 whole entry, chain 1 of 4, the tested form may be a part): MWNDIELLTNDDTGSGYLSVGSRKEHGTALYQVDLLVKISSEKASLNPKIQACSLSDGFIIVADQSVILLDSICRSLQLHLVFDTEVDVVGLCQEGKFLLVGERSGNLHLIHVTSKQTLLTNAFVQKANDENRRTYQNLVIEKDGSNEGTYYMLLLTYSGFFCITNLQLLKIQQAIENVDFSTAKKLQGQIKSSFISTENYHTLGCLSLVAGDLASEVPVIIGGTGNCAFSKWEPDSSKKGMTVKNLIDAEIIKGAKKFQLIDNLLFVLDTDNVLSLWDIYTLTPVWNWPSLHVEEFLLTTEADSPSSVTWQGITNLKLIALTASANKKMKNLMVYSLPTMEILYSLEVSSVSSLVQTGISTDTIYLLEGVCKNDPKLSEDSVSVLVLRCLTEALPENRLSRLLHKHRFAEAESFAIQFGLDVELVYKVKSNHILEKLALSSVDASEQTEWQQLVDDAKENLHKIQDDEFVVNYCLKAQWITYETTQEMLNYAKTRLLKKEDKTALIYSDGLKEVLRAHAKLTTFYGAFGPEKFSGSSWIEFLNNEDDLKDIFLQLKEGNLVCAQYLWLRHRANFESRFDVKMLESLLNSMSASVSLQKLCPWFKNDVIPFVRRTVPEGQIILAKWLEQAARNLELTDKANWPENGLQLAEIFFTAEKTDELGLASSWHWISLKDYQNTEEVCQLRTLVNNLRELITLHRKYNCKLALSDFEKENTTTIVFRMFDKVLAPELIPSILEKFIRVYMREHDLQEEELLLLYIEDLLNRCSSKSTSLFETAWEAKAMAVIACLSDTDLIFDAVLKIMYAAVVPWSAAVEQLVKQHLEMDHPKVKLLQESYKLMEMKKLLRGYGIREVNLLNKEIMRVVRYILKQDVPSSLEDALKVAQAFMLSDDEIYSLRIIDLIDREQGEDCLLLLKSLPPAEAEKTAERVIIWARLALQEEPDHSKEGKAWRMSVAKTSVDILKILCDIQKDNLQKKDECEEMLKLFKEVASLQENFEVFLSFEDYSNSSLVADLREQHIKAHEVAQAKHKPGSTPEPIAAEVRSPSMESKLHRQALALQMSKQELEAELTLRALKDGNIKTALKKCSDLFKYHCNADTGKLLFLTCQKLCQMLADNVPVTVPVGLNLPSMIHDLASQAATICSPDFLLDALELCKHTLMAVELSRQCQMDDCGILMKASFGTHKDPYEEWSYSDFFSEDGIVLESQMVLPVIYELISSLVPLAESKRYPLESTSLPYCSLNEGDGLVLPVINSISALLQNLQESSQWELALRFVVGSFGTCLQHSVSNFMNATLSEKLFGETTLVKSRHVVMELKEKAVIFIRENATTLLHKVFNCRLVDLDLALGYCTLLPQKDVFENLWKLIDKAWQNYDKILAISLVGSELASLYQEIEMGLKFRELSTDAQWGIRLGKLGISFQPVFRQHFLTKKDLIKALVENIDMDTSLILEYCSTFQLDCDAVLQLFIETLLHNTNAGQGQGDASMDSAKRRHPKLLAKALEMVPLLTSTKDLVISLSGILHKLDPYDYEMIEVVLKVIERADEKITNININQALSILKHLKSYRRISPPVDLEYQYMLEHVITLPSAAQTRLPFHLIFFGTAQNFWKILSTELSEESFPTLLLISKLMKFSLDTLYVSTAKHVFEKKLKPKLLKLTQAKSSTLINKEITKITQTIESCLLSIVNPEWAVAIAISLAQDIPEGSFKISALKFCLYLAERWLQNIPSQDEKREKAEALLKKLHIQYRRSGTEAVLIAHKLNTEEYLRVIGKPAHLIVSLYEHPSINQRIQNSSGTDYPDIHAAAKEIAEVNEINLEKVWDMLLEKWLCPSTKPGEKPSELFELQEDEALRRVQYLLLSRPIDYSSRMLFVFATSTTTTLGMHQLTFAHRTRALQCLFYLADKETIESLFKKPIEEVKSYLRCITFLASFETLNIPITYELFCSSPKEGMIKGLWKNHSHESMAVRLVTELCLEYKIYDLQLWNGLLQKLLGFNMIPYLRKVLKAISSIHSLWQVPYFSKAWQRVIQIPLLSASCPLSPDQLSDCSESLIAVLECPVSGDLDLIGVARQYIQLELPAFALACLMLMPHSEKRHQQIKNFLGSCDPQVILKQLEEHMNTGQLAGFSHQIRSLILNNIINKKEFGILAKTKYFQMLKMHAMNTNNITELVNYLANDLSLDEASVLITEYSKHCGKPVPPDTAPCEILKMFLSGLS
T2 sequence (Q9H900 whole entry, chain 2 of 4, the tested form may be a part): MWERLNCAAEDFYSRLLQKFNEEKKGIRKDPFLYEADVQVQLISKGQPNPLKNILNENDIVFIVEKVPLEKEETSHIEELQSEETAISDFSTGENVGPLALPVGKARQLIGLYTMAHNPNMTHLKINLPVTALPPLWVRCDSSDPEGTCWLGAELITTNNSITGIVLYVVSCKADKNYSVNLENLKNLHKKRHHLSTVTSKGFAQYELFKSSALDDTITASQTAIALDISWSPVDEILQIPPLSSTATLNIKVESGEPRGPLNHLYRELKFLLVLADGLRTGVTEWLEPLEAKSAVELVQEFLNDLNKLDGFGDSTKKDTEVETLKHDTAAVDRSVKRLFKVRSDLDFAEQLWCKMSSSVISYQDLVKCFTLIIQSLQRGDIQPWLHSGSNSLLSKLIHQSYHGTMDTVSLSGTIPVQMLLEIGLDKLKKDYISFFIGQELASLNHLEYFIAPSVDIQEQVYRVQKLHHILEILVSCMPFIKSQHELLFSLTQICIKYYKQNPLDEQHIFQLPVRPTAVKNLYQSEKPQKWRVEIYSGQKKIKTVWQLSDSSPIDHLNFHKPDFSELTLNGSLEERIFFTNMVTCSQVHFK
T2 sequence (O43264 whole entry, chain 3 of 4, the tested form may be a part): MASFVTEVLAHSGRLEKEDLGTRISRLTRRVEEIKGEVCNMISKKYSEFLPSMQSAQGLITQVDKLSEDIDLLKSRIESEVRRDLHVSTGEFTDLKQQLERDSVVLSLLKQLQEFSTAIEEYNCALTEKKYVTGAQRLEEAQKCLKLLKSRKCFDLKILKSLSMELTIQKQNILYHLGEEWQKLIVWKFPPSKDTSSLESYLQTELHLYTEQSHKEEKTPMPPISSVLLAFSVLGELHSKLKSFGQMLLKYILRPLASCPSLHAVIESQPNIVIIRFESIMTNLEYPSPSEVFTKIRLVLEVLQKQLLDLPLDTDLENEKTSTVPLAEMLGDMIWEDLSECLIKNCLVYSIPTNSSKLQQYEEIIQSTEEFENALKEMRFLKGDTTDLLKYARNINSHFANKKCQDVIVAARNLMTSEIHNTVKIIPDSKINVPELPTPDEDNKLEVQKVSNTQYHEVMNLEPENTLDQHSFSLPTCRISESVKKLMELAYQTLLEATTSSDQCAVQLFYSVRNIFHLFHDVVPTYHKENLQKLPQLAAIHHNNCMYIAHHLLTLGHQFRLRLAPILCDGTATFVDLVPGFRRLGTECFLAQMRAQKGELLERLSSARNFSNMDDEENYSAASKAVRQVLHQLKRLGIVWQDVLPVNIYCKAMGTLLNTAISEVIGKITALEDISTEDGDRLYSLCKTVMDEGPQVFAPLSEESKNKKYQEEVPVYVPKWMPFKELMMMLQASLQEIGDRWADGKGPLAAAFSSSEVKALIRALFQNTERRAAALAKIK
T2 sequence (Q96EA4 whole entry, chain 4 of 4, the tested form may be a part): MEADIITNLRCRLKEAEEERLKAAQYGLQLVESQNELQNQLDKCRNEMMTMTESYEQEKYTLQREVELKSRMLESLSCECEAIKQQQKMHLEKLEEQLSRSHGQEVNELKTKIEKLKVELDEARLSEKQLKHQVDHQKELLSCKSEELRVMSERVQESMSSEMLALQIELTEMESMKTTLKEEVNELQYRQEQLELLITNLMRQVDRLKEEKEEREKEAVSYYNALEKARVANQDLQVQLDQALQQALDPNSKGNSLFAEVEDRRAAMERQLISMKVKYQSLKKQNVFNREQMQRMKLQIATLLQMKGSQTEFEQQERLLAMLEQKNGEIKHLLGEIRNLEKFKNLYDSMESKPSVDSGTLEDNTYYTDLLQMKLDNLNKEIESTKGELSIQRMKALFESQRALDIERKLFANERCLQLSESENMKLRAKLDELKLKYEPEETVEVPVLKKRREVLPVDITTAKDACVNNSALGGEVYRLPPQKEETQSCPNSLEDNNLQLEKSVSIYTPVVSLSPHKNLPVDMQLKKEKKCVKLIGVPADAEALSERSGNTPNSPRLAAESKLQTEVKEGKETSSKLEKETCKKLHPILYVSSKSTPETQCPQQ
As to the kind of experiment: co-sedimentation; pelleting assay: polymerized RZZS incubated with preys 2 hours at 20°C, 40% glycerol cushion, 100,000g 45 min at 20°C; 50 mM Hepes pH 8, 100 mM NaCl, 2 mM MgCl2, 1 mM TCEP. The conditions noted are these: both partners purified.

T1 sequence (P50748 whole entry, chain 1 of 3): as the sequence (P50748 whole entry, chain 1 of 4, the tested form may be a part) above
T1 sequence (Q9H900 whole entry, chain 2 of 3): as the sequence (Q9H900 whole entry, chain 2 of 4, the tested form may be a part) above
T1 sequence (O43264 whole entry, chain 3 of 3): as the sequence (O43264 whole entry, chain 3 of 4, the tested form may be a part) above

B1: GST-BUB1^467-521 (domain or fragment, human, UniProt O43683 467-521, looked up)
chain: ALGFIMNMFQAPTLPDISDDKDEWQSLDQNEDAFEAQFQKNVRSSGAWGVNKIIS
notes: source: E. coli BL21 CodonPlus, purified (GSTrap, SEC); not shown: GST, N-terminal, kept
Take B1: the binding result in assay [1] and in assay [2] was “binds” in each case.
